Values quoted from earlier work in PMC8431939.

Molecular target: CD112 (Homo sapiens) (UniProt Q92692)
Experiment: SPR

UniProt Q92692, sequence (Q92692 32-538): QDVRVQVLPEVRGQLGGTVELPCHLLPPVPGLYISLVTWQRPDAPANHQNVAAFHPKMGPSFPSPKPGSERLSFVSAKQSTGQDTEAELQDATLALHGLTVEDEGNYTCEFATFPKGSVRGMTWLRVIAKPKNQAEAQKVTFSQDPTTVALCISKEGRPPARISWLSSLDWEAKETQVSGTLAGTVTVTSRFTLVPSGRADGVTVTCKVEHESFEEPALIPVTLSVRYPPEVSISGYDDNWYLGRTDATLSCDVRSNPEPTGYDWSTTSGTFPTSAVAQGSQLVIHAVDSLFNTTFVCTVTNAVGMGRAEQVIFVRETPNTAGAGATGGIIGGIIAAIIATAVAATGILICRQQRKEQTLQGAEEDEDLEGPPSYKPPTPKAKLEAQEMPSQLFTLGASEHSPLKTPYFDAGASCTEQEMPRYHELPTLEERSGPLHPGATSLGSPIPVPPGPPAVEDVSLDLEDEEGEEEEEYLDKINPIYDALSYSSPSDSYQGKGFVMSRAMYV

With CD112R (from UniProt Q6DKI7) as the substance, how does the Kd read?
The Kd was 88 nM.
